Experimental findings from article PMC10056440 (2023) are described below.

The target of experiment [1] is mKate2-Kv1.3 M1-D52 truncated (Homo sapiens, UniProt P22001). Briefly: competition with AgTx2-GFP, confocal, Neuro 2A cells.
For experiment [2], the target named is KcsA-Kv1.1 pore blocker binding site (Homo sapiens, UniProt Q09470). Briefly: competition with AgTx2-GFP, confocal, spheroplasts.
Experiment [3] addresses KcsA-Kv1.3 pore blocker binding site (Homo sapiens, UniProt P22001). In words: competition with AgTx2-GFP, confocal, spheroplasts.
The target in experiment [4] is KcsA-Kv1.6 pore blocker binding site (Homo sapiens, UniProt P17658). Briefly: competition with AgTx2-GFP, confocal, spheroplasts.
KcsA-Kv1.6 pore blocker binding site, sequence (P17658 398-431): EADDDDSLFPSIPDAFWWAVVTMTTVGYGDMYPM

No end group written: not given here.

KcsA-Kv1.1 pore blocker binding site, sequence (Q09470 348-381): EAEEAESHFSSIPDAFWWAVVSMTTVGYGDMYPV
KcsA-Kv1.3 pore blocker binding site, sequence (P22001 420-453): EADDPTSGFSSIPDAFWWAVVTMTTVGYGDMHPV
mKate2-Kv1.3 M1-D52 truncated, sequence (P22001 53-575): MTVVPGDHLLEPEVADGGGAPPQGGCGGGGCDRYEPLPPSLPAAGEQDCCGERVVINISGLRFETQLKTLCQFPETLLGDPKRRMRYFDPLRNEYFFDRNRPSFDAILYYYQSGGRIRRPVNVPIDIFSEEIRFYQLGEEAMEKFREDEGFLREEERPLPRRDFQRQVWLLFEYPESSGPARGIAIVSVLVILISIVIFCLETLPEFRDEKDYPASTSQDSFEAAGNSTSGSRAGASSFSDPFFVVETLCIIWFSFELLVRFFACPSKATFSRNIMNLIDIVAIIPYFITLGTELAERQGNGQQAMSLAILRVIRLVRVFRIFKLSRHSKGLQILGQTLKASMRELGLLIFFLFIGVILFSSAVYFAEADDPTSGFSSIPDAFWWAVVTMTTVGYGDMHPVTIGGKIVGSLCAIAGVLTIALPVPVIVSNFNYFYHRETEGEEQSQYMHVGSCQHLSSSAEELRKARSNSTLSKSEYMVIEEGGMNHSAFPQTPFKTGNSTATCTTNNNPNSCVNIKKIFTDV

As for GVPINVSCTGSPQCIKPCKDAGMRFGKCMNRKCHCTPK (ends and bridges not checked; cysteine pairing not given here) [AgTx2, listing 1 of 4 here], in experiment [1], the Ki turned out to be 0.7 nM.

Molecule GVPINVSCTGSPQCIKPCKDAGMRFGKCMNRKCHCTPK (ends and bridges not checked; cysteine pairing not given here) [AgTx2, listing 2 of 4 here] had a Ki in experiment [2] of 3.7 nM.

In the case of GVPINVSCTGSPQCIKPCKDAGMRFGKCMNRKCHCTPK (ends and bridges not checked; cysteine pairing not given here) [AgTx2, listing 3 of 4 here], in experiment [3], the Ki was 0.039 nM.

As for GVEINVKCSGSPQCLKPCKDAGMRFGKCMNRKCHCTPK (ends and bridges not checked; cysteine pairing not given here) [KTx1, listing 1 of 3 here], the Ki in experiment [4] amounted to 0.016 nM.

In the case of GVEINVKCSGSPQCLKPCKDAGMRFGKCMNRKCHCTPK (ends and bridges not checked; cysteine pairing not given here) [KTx1, listing 2 of 3 here], the Ki in experiment [3] stood at 0.032 nM.

As to GVPINVSCTGSPQCIKPCKDAGMRFGKCMNRKCHCTPK (ends and bridges not checked; cysteine pairing not given here) [AgTx2, listing 4 of 4 here], the Ki in experiment [4] stood at 0.027 nM.

For GVEINVKCSGSPQCLKPCKDAGMRFGKCMNRKCHCTPK (ends and bridges not checked; cysteine pairing not given here) [KTx1, listing 3 of 3 here], the Ki in experiment [2] was 3.8 nM.

Usually Ki stands for a measure of affinity in units of concentration, obtained from inhibition or displacement.
